Experimental data: PMC11257942

Biological target: major core protein A10 of vaccinia virus (gene product of A10) (vaccinia virus (VACV) strain Western Reserve (WR))
Assay: cryo-EM structure

Substance: major core protein A10 of vaccinia virus (gene product of A10) (natural protein)
- stoichiometry N: 3
